# Data from patent US11780901B2, “Analogues of parathyroid hormone (1-34) that function as agonists of the parathyroid hormone receptor-1 and display modified activity profiles” (Wisconsin Alumni Research Foundation, priority 2013, dated 2023).
# Columns and labels:
# [1] = target: T1, PTHR1 (Homo sapiens, UniProt Q03431); test: Functional selectivity (Gs activation/cAMP production vs βarr recruitment); format: cell-based; design: expressed in transfected cells; host or cells: cells stably expressing PTHR1; conditions: cAMP activation vs βarr1 and βarr2 recruitment, relative to PTH (1-34)
# T1 sequence (Q03431 27-593): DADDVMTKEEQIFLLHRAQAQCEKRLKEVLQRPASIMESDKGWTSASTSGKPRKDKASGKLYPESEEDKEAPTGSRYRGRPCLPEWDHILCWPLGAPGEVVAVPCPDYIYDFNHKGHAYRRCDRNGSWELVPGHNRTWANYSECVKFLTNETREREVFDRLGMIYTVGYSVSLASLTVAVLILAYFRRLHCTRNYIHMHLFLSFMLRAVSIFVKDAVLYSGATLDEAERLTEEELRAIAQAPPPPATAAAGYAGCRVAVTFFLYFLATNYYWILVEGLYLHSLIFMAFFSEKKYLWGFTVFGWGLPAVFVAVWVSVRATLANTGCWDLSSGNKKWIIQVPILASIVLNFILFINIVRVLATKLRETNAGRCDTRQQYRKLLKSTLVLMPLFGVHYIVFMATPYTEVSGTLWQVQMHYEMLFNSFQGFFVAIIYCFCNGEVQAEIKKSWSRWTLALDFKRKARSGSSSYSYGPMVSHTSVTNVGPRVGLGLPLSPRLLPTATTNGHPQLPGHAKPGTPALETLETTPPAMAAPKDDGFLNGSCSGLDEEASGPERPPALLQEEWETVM
# Procedure: More specifically, the initial studies that yielded the compounds disclosed and claimed herein were conducted to determine whether there is a correlation between βarr recruitment and receptor residence time of a PTHR1 agonist. The initial studies were thus conducted in two steps. First, the functional selectivity (Gs activation as indicated by cAMP production vs. βarr recruitment) of several PTHR1 agonists that display substantial differences in signaling duration were evaluated. Second, novel PTHR1 agonists were designed that have high functional selectivity and evaluated the signaling duration of these biased agonists.
# (§1) The functional selectivity of BA058 is more significant than that of PTHrP. […] LA-PTH is a long-acting PTH analog. […] The middle panels in FIG. 2 are graphs depicting, from left-to-right: βarr1 and βarr2 recruitment, presented as normalized BRET signals (bioluminescence resonance energy transfer) as a function of the log of the peptide concentration, and cAmp activation presented as normalized RLU signals (relative light units) as a function of the log of the peptide concentration. Red=PTH. Orange=LA=LA−PTH. Blue=BA058. Green=PTHrP. (BRET assays are well known and suitable kits are available commercially. See, for example, Promega's “NanoBRET” kits, catalogs nos. N1821 and N1811; Promega Corporation, Fitchburg, Wis.). The table at the bottom of FIG. 2 presents the pEC50 and Emax values for the […] and βarr2 recruitment and cAMP activation. FIG. 3 presents the data for the bias of the activity—either toward βarr recruitment or cAMP activation.
# Incorporating (R*)-β^2Leu/(D)-Leu at the 7th position or (R*)-β^2Nle at the 8th position leads to high Gs-biased agonism. […] (D)-Nle is poorly tolerated at the 8th position for both cAMP signaling and βarr recruitment. The top panels in FIG. 5 are graphs depicting, from left-to-right: βarr1 and βarr2 recruitment, presented as normalized BRET signals as a function of the log of the peptide concentration, and cAmp activation presented as normalized RLU signals as a function of the log of the peptide concentration. […]
# [2] = target: T2, rat PTHR-1 (GR35 cells) (Rattus norvegicus, UniProt P25961); test: Washout assay of Gs-biased PTHR1 agonists (cAMP response after washout); format: cell-based; conditions: compared with PTH (1-34)
# T2 construct: expressed in transfected cells
# T2 sequence (P25961 27-591): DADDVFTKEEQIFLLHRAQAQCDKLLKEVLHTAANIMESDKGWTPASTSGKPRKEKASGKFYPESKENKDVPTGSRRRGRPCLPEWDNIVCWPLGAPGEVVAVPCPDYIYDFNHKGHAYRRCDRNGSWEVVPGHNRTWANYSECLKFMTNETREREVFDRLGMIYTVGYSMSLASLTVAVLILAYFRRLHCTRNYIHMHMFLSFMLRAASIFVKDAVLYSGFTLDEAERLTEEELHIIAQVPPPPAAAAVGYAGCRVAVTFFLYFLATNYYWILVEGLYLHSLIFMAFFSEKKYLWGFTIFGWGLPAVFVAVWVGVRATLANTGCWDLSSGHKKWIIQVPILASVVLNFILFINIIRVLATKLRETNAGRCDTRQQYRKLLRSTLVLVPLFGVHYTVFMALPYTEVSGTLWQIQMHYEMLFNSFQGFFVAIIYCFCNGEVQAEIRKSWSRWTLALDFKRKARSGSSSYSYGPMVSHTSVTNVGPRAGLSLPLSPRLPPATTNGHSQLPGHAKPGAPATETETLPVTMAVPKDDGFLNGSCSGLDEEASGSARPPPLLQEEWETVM
# Procedure: These “washout assays”^7,8,21 assess the ability of the peptides to form stable ligand-receptor complexes capable of stimulating prolonged cAMP responses. The ability of a peptide to elicit prolonged cAMP responses via PTHR-1 following washout typically correlates with the affinity of that peptide for the R^0 state.^7,8,21
# HEK293 cell monolayers expressing rat PTHR-1 (GR35 cells) were treated with ligand in for 14 minutes. This buffer was then discarded, and the cell monolayer was rinsed (2×). Buffer containing luciferin was introduced for 120 minutes. Luminescence response was recorded before and after washout, with luminescence readings recorded every 2 minutes. The area under the curve (AUC) for luminescence response curve was determined using GraphPad Prism.
# Data were processed by using the Microsoft Excel and GraphPad Prism 4.0 software packages. Data from binding and cAMP dose—response assays were analyzed using a sigmoidal dose—response model with variable slope. Washout responses were assessed by quantifying the area under the luminescence response curve (AUC) following washout. Post-washout AUC was normalized by dividing the post-washout AUC by the pre-washout AUC. Paired data sets were statistically compared by using Student's t test (two-tailed) assuming unequal variances for the two sets.
# [3] = target: T1, PTHR1; test: Wash-out assay, duration of PTHR1 activation; format: cell-based; design: expressed in transfected cells; host or cells: cells stably expressing PTHR1; conditions: PTHR1; agonist at ~EC80; PTH(1-34)-NH2 = 100
# Text: Duration of activation for PTHR1 and PTHR2. To assess the duration of PTHR1 and PTHR2 activation induced by α/β-peptides 14 and 15, the time course of cAMP production by each receptor was examined after stimulation with an agonist and subsequent washing of the cells to remove unbound peptide (wash-out assay). […] During the initial “ligand-on” phase, cells stably expressing PTHR1 or PTHR2 were stimulated with an agonist concentration corresponding to ˜EC80; the medium contained D-luciferin. […] After the addition of fresh medium containing D-luciferin, the luminescence decay is measured. The area under the “ligand-off” curve (AUC) reflects the duration of signaling, which may be related to residence time of the agonist on the receptor but could have other origins at the molecular level.
# [4] = target: T3, PTHR2 Y318I (Homo sapiens, UniProt P49190, Y318I); test: Activation of PTHR2 variant Y318I; format: cell-based; conditions: 100 nM
# T3 construct: expressed in transfected cells
# T3 sequence (P49190 25-550 Y318I): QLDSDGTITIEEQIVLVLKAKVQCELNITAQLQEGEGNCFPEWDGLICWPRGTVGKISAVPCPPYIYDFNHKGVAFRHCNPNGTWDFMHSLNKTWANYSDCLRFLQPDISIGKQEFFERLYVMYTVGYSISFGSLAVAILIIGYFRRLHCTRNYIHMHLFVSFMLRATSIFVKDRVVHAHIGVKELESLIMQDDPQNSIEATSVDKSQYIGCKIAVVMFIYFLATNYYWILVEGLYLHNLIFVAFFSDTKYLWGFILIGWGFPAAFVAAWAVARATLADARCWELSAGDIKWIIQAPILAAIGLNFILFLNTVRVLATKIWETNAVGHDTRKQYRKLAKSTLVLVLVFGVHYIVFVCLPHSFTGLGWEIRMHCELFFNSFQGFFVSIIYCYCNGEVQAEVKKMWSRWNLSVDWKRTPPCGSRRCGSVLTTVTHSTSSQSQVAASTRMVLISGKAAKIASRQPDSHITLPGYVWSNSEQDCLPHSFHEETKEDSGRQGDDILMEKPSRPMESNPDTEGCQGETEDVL
# Text: (§2) Molecular basis of PTHR1 vs. PTHR2 selectivity. Previous receptor-mutation studies have identified sites within PTHR1 and PTHR2 that play critical roles in determining peptide agonist selectivity.
# [5] = test system: PTHR2 ECL1 chimera; test: Activation of PTHR2 variant, ECL1 chimera; format: cell-based; conditions: 100 nM
# Text: as §2
# [6] = target: T4, R^0 state of PTHR1 (Homo sapiens, UniProt Q03431); conditions: relative to PTH (1-34); cited from earlier work
# T4 construct: expressed in transfected cells; host or cells: COS-7, transient; membranes
# T4 sequence (Q03431 27-593): T1 sequence (Q03431 27-593)
# [7] = target: T5, PTHR2 (Homo sapiens, UniProt P49190); test: Antagonism of PTHR2 activation by PTH(1-34)-NH2; format: cell-based; design: expressed in transfected cells; host or cells: cells stably expressing PTHR2; conditions: FIG. 11
# T5 sequence (P49190 25-550): as the sequence (P49190 25-550 Y318I) above, with I294Y counted along it
# Text: Data points represent mean±s.e.m from four independent experiments. Curves were fit to the data using a four-parameter sigmoidal dose-response equation.
# See Hoare, S. R. J., Clark, J. A. & Usdin, T. B. Molecular determinants of tuberoinfundibular peptide of 39 residues (TIP39) selectivity for the parathyroid hormone-2 (PTH2) receptor—N-terminal truncation of TIP39 reverses PTH2 receptor/PTH1 receptor binding selectivity. Journal of Biological Chemistry 275, 27274-27283 (2000) and Gardella, T. J., Luck, M. D., Jensen, G. S., Usdin, T. B. & Juppner, H. Converting parathyroid hormone-related peptide (PTHrP) into a potent PTH-2 receptor agonist.
# [8] = target: T1, PTHR1; test: βarr recruitment (BRET); format: cell-based; design: expressed in transfected cells; host or cells: cells stably expressing PTHR1; conditions: compared with PTH and LA-PTH
# Text: as §1
# [9] = target: T6, PTHR2 I244L (Homo sapiens, UniProt P49190, I244L); test: Activation of PTHR2 variant I244L; format: cell-based; conditions: 100 nM
# T6 construct: expressed in transfected cells
# T6 sequence (P49190 25-550 I244L): as the sequence (P49190 25-550 Y318I) above, with I220L, I294Y counted along it
# Text: as §2
# [10] = target: T5, PTHR2; design: expressed in transfected cells; conditions: previous studies; cited from earlier work
# [11] = target: T1, PTHR1; design: expressed in transfected cells; conditions: previous studies; cited from earlier work
Substance,signaling bias / functional selectivity (in words) [1],signaling duration after washout (in words) [2],Normalized ligand-on Emax [3],agonist activity at PTHR2 Y318I relative to wild-type PTHR2 (in words) [4],agonist activity at PTHR2 ECL1 chimera relative to wild-type PTHR2 (in words) [5],R0 affinity (in words) [6],antagonism of PTHR2 activation by PTH(1-34)-NH2 (in words) [7],βarr recruitment efficacy maximum (in words) [8],agonist activity at PTHR2 I244L relative to wild-type PTHR2 (in words) [9],PTHR2 agonist activity (in words) [10],PTHR1 agonist activity (in words) [11]
Ligand 12: PTH(1-34) analogue with replaced residue at position 8 (character image); highly Gs-biased (SVSEIQLXHNLGKHLNSMERVEWLRKKLQDVHNF; non-natural residue at position 8; MOD_RES (8)..(8) X at position 8 is (R*)-Beta-2-Norleucine.),strongly biased toward cAMP activation relative to both βarr1 and βarr2 recruitment,more transient signaling than PTH (1-34),–,–,–,–,–,–,–,–,–
"PTHrP(1-36)-NH2: parathyroid hormone-related protein fragment, naturally PTHR1-selective agonist",biased toward cAMP activation relative to both βarr1 and βarr2 recruitment,–,102 ± 1,much more susceptible to activation,much more susceptible to activation,moderate,antagonistic effect,lower efficacy βarr recruitment maximum,much more susceptible to activation,very weak agonist,potent agonist
